Where no end group is shown, it is not given here.
Legend:
[1] = biological target: T1, receptor clone 5 (carboxy-terminal 92 amino acids, residues 117 to 208, of heart LIM-protein / cysteine-rich … (murine, UniProt P36201 117-208 (rat entry))); assay: bacterial two-hybrid (BacterioMatch), peptide bait against heart cDNA target clone
T1 construct: Target clone of the bacterial two-hybrid screen; also called HLP clone; HLP/CRIP2 fragment; not shown: fusion partner encoded by the target vector of the mouse heart cDNA library (BacterioMatch two-hybrid); not described
T1 sequence: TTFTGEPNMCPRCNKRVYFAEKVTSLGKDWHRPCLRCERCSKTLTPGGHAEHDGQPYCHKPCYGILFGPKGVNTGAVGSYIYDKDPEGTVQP
Method: (§1) PCR products were digested with EcoRI and XhoI, and subcloned into the bait pBT plasmid (Stratagene; La Jolla, Calif.) to generate a recombinant library of baits designated “pBT-hp.” pBT-hp plasmids were transformed into XL1-Blue MRF' Kan competent cells, and 2 μl or 5 μl of cells plated on 100 mm LB-chloramphenicol plates to determine the total number of primary transformants. The remaining transformants were pooled and plated on 150 mm LB-chloramphenicol plates. […] The plates were then scraped, and bacteria harvested. After plating 2 μl and 5 μl of the harvested library in order to determine the size of the amplified library, the pool of pBT-hp plasmids was purified from the pooled bacteria using a commercially available maxiprep DNA column. Purified DNA was used to transform BacterioMatch® Two-Hybrid System reporter strain competent cells according to the manufacturer's instructions (Stratagene; La Jolla, Calif.).
(§2) Bacterial two-hybridization experiments were performed with the BacterioMatch® Two-Hybrid System (Stratagene) according to the manufacturer's instructions. Briefly, pBT-hp and heart cDNA library plasmids were co-transformed using 50 ng each plasmid. Aliquots (100 μl) of co-transformants were plated on selective LB plates (500 μg/ml carbenicillin) and incubated at 37° C. for 20 hours before scoring the plates for growth. […]

[2] = biological target: T2, receptor clone 36 (entire coding sequence of unnamed RIKEN Fantom protein product putatively similar to … (murine, UniProt Q9CZB0 1-169)); assay: as above
T2 construct: also called MpcII-3-related protein; not shown: fusion partner encoded by the target vector of the mouse heart cDNA library (BacterioMatch two-hybrid); not described
T2 sequence: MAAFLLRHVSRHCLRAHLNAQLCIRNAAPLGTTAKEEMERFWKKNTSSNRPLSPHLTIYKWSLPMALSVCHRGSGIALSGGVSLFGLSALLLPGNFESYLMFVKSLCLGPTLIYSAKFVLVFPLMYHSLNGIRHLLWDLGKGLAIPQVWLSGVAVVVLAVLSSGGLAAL
Method: as §1, §2

[3] = biological target: T3, murine cysteine-rich protein 2 / heart LIM-protein (HLP/CRIP2), full length (murine, UniProt Q9DCT8 1-208); assay: competition: free peptide against CRPPR phage on HLP/CRIP2-transfected 293T cells
T3 construct: also called ESP1
T3 sequence: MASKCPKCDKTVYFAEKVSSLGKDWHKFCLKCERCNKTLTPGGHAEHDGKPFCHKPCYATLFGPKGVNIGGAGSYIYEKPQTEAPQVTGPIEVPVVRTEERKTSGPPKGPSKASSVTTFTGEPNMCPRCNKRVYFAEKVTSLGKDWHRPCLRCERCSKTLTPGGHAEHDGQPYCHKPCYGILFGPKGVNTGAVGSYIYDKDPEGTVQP
Method: (§3) Receptor transfections and phage binding assays were performed as follows. 293T cells were transfected with pMH6-derived plasmids (Roche Diagnostics; Indianapolis, Ind.) encoding HLP/CRIP2, Sigirr/TIR8, MpcII-3-related protein and bc10 using the Fugene transfection reagent (Roche Diagnostics). Briefly, 10 μg of plasmid was mixed with 700 μl of serum-free DMEM and 30 μl of Fugene transfection reagent and incubated for 15 minutes at room temperature before the mixture was added to cells. After forty-eight hours, cells were detached from culture dishes using EDTA and washed once with PBS. Phage displaying CRPPR (SEQ ID NO: 1), CKRAVR (SEQ ID NO: 7), […] (SEQ ID NO: 11) or […] (SEQ ID NO: 12) and nonrecombinant control phage (1×10⁹ p.f.u) were incubated with transfected cells for two hours at 4° C. Unbound phage were removed by five washes with 1% BSA in PBS. Bound phage were rescued by addition of bacteria; binding efficiencies were determined by plaque assay as described above.
(§4) Peptides for competition assays were synthesized at The Burnham Institute peptide facility using Fmoc chemistry in a solid-phase synthesizer prior to purification by HPLC and confirmation of their identity by mass spectrometry. […] After five washes with 1% PBS, bound phage were rescued and quantitated by plaque assay.

[4] = biological target: T4, murine single Ig IL-1 receptor related protein (Sigirr/TIR8), full length (murine, UniProt Q9JLZ8 1-409); assay: competition: free peptide against CKRAVR phage on Sigirr/TIR8-transfected 293T cells
T4 construct: Expressed from full-length cDNA in a pMH6-derived plasmid in 293T cells
T4 sequence: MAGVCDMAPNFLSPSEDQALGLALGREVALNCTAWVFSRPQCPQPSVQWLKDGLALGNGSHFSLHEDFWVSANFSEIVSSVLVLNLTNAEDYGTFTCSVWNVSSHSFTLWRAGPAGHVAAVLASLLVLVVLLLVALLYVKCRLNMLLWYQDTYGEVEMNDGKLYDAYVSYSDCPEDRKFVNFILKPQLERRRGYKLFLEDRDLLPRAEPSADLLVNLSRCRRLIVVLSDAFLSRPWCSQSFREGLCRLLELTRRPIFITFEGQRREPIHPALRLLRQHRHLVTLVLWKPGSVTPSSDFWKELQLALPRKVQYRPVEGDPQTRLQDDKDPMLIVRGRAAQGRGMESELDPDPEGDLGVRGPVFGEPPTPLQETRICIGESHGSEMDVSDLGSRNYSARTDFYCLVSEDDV
Method: as §3, §4

[5] = biological target: T5, murine bladder cancer-associated protein homolog (bc10), full length (murine, UniProt P62951 1-87); assay: competition: free peptide against … phage on bc10-transfected 293T cells
T5 construct: Expressed from full-length cDNA in a pMH6-derived plasmid in 293T cells
T5 sequence: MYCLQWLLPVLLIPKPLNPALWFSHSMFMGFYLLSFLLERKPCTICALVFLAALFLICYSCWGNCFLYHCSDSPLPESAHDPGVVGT
Method: as §3, §4

B1: CRPPR (SEQ ID NO: 1), peptide insert in bait plasmid pBT-hp (peptide)
chain: CRPPR
notes: Hybrid bait protein of the bacterial two-hybrid screen; not shown: fusion partner encoded by bait plasmid pBT (BacterioMatch two-hybrid); not described, position relative to the peptide n
[1]
  binding result: binds

B2: CRSTRANPC (SEQ ID NO: 11), peptide insert in bait plasmid pBT-hp (peptide)
chain: CRSTRANPC
modifications: cysteine pairing not given here; also: part of pBT bait fusion protein, position of partner not given here
notes: not shown: fusion partner encoded by bait plasmid pBT (BacterioMatch two-hybrid); not described, position relative to the peptide n
[2]
  binding result: binds

B3: free synthetic peptide CRPPR (SEQ ID NO: 1) (peptide)
peptide: CRPPR
notes: also called CRPPR peptide
[3]
  binding result: binds

B4: free synthetic peptide CKRAVR (SEQ ID NO: 7) (peptide)
peptide: CKRAVR
notes: also called free peptide CKRAVR; cognate peptide
[4]
  binding result: binds

B5: free synthetic peptide CPKTRRVPC (SEQ ID NO: 12) (peptide)
peptide: CPKTRRVPC
notes: also called cognate peptide
[5]
  binding result: binds
